The text below walks through data of the supplement of paper PMC7877785.

± gives the uncertainty stated by the source.

The nature of the series: self-splicing fitness, log relative to wild type (ln ratio); higher = more splicing; Tetrahymena group I intron in knt gene, E. coli kanamycin selection, DiMSum; sequences stand for … in CUCUCU…GGAGGGAAAAGUUAUCAGGCAUGCACCUGGUAGCUAGUCUUUAAACCAAUAGAUUGCAUCGGUUUAAAAGGCAAGACCGUCAAAUUGCGGGAAAGGGGUCAACAGCCGUUCAGUACCAAGUCUCAGGGGAAACUUUGAGAUGGCCUUGCAAAGGGUAUGGUAAUAAGCUGACGGACAUGGUCCUAACCACGCAGCCAAGUCCUAAGUCAACAGAUCUUCUGUUGAUAUGGAUGCAGUUCACAGACUAAAUGUCGGUCGGGGAAGAUGUAUUCUUCUCAUAAGAUAUAGUCGGACCUCUCCUUAAUGGGAGCUAGCGGAUGAAGUGAUGCAACACUGGAGCCGCUGGGAACUAAUUUGUAUGCGAAAGUAUAUUGAUUAGUUUUGGAGUACUCGUGGUCG
The essentials:
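Library with all eight P1ex-region intron nucleotides randomised, intron inside the knt kanamycin-resistance gene on pET-22b(+), in E. coli BL21(DE3). Cells grew overnight at 37°C or 30°C on LB agar with or without 25 μg/mL kanamycin (plus 100 μg/mL carbenicillin, 50 μM IPTG, 0.2% rhamnose), in six replicate transformations. Pooled colonies were amplicon-sequenced on Illumina HiSeq 2500. DiMSum fitness is the error-weighted combination of wild-type-normalised replicate fold changes, kanamycin versus none.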

UACAAGCAAUAUUACGUCAG: the “self-splicing fitness (ln)” value is, setting by setting: (30 °C) -2.54 ± 0.14; (37 °C) -2 ± 0.15. The like results for GCUGAGCAAUAUUACGCAAC were, in that order, -2.18 ± 0.24 and -2.11 ± 0.37.

For CUCAAGCAAUAUUACGUAGC, the “self-splicing fitness (ln)” value (30 °C) is -4.09 ± 0.25 and the “self-splicing fitness (ln)” value (37 °C) is -2.59 ± 0.22.

With GAUAAGCAAUAUUACGGAGC, the “self-splicing fitness (ln)” value is -3.95 ± 0.29 (30 °C) and -1.76 ± 0.19 (37 °C).

On to AUCUAGCAAUAUUACGUCAC, for which the “self-splicing fitness (ln)” value runs as follows: (30 °C) -4.04 ± 0.26; (37 °C) -2.11 ± 0.2.

AUACAGCAAUAUUACGAAAU: the “self-splicing fitness (ln)” value reads like this: (30 °C) -1.44 ± 0.087; (37 °C) -0.906 ± 0.11. The corresponding values for CGUUAGCAAUAUUACGUAUA are -2.85 ± 0.28 and -2.49 ± 0.31. The like results for AGCUAGCAAUAUUACGAUCU were, in that order, 0.121 ± 0.12 and 0.532 ± 0.13. The like results for GGUGAGCAAUAUUACGCGAC were, in that order, -3.49 ± 0.29 and -3.12 ± 0.25. Regarding CAUCAGCAAUAUUACGCGAC, the “self-splicing fitness (ln)” value by setting is: (30 °C) -4.17 ± 0.29; (37 °C) -2.92 ± 0.22. The corresponding values for GUCGAGCAAUAUUACGGAUG are -1.27 ± 0.095 and -0.69 ± 0.13. The like results for GUAUAGCAAUAUUACGGACG were, in that order, -2.73 ± 0.41 and -1.3 ± 0.33. As for UCUUAGCAAUAUUACGAUGG, the “self-splicing fitness (ln)” value (30 °C) was -0.765 ± 0.15 and the “self-splicing fitness (ln)” value (37 °C) turned out to be 0.551 ± 0.15.

For GGCUAGCAAUAUUACGCGUG, the “self-splicing fitness (ln)” value reads like this: (30 °C) -0.672 ± 0.071; (37 °C) -1.13 ± 0.083.

Regarding AAUUAGCAAUAUUACGUUCU, the “self-splicing fitness (ln)” value is -0.609 ± 0.077 (30 °C) and -0.522 ± 0.099 (37 °C). For UCAUAGCAAUAUUACGUUGA, the “self-splicing fitness (ln)” value is, setting by setting: (30 °C) -3.91 ± 0.29; (37 °C) -2.75 ± 0.16. AACAAGCAAUAUUACGUAUC: the “self-splicing fitness (ln)” value (30 °C) was -4.08 ± 0.15 and the “self-splicing fitness (ln)” value (37 °C) was -2.01 ± 0.11.

In the case of AUUCAGCAAUAUUACGGGUG, the “self-splicing fitness (ln)” value is -1.71 ± 0.077 (30 °C) and -0.135 ± 0.086 (37 °C).

Take AUUUAGCAAUAUUACGUCUG: the “self-splicing fitness (ln)” value (30 °C) was -1.73 ± 0.11 and the “self-splicing fitness (ln)” value (37 °C) was -1.15 ± 0.11. The like results for GGCCAGCAAUAUUACGGUCG were, in that order, -1.2 ± 0.14 and 0.113 ± 0.14.

Take UUGUAGCAAUAUUACGUUGC: the “self-splicing fitness (ln)” value (37 °C) is -2.29 ± 0.46.

With AAAAAGCAAUAUUACGCGCA, the “self-splicing fitness (ln)” value was -0.39 ± 0.082 (30 °C) and 0.127 ± 0.11 (37 °C). For the sequence CGUUAGCAAUAUUACGAUCU, the “self-splicing fitness (ln)” value (30 °C) was -1.14 ± 0.091 and the “self-splicing fitness (ln)” value (37 °C) is -0.132 ± 0.12. ACUGAGCAAUAUUACGGCUU: the “self-splicing fitness (ln)” value reads like this: (30 °C) -3.22 ± 0.21; (37 °C) -3.27 ± 0.4.

Turning to UGUAAGCAAUAUUACGUACA, the “self-splicing fitness (ln)” value by setting is: (30 °C) -0.772 ± 0.098; (37 °C) -0.557 ± 0.16.

For CGACAGCAAUAUUACGAAGU, the “self-splicing fitness (ln)” value by setting is: (30 °C) -4.32 ± 0.37; (37 °C) -3.18 ± 0.43.

CCCAAGCAAUAUUACGGGAU: the “self-splicing fitness (ln)” value is, setting by setting: (30 °C) -3.41 ± 0.096; (37 °C) -2.47 ± 0.12. The corresponding values for ACUCAGCAAUAUUACGUCCU are -1.18 ± 0.094 and 0.185 ± 0.11.

In the case of UGCUAGCAAUAUUACGCACC, the “self-splicing fitness (ln)” value is, setting by setting: (30 °C) -1.91 ± 0.34; (37 °C) -0.242 ± 0.37. The like results for CGGCAGCAAUAUUACGUCUC were, in that order, -1.24 ± 0.065 and -0.433 ± 0.086. As for UCUGAGCAAUAUUACGGUCC, where the note is “30 °C”, the “self-splicing fitness (ln)” value was -2.51 ± 0.25. For the sequence GUCCAGCAAUAUUACGGGGG, the “self-splicing fitness (ln)” value (30 °C) was -2.01 ± 0.1 and the “self-splicing fitness (ln)” value (37 °C) is -1.55 ± 0.14. In the case of GAACAGCAAUAUUACGCCCU, the “self-splicing fitness (ln)” value by setting is: (30 °C) -1.69 ± 0.42; (37 °C) 0.579 ± 0.37.

As to GUAUAGCAAUAUUACGCUGA, the “self-splicing fitness (ln)” value is -1.91 ± 0.2 (30 °C) and -1.81 ± 0.17 (37 °C). On to CAUCAGCAAUAUUACGCUCC, for which the “self-splicing fitness (ln)” value runs as follows: (30 °C) -2.75 ± 0.24; (37 °C) -2.3 ± 0.28.

Regarding AUACAGCAAUAUUACGGACU, the “self-splicing fitness (ln)” value is, setting by setting: (30 °C) -0.732 ± 0.06; (37 °C) 0.141 ± 0.09. Consider GUCCAGCAAUAUUACGCGGC, for which the “self-splicing fitness (ln)” value reads like this: (30 °C) -2.27 ± 0.26; (37 °C) -2.6 ± 0.48.

Regarding ACCUAGCAAUAUUACGUUAC, the “self-splicing fitness (ln)” value was -3.6 ± 0.21 (30 °C) and -3.13 ± 0.23 (37 °C).

Consider CAUCAGCAAUAUUACGCCUA, for which the “self-splicing fitness (ln)” value is, setting by setting: (30 °C) -1.55 ± 0.1; (37 °C) -1.03 ± 0.1. The like results for CUGCAGCAAUAUUACGGGGA were, in that order, -2.72 ± 0.19 and -2.22 ± 0.18.

For AGCUAGCAAUAUUACGGUUA, the “self-splicing fitness (ln)” value (30 °C) was -0.191 ± 0.067 and the “self-splicing fitness (ln)” value (37 °C) came to 0.383 ± 0.073. The like results for GGCGAGCAAUAUUACGGGGC were, in that order, -3.65 ± 0.29 and -2.96 ± 0.34.

As for ACCAAGCAAUAUUACGACCC, the “self-splicing fitness (ln)” value runs as follows: (30 °C) -1.37 ± 0.096; (37 °C) -0.181 ± 0.15. The like results for GUAGAGCAAUAUUACGAUUA were, in that order, -0.625 ± 0.1 and -0.396 ± 0.14.

Consider AAUUAGCAAUAUUACGCAAC, for which the “self-splicing fitness (ln)” value reads like this: (30 °C) -3 ± 0.4; (37 °C) -1.93 ± 0.24. Consider UGUGAGCAAUAUUACGAAGU, for which the “self-splicing fitness (ln)” value (30 °C) was -1.67 ± 0.32. For UGGUAGCAAUAUUACGAUUU, the “self-splicing fitness (ln)” value (30 °C) is -1.14 ± 0.14 and the “self-splicing fitness (ln)” value (37 °C) was -0.866 ± 0.14. The like results for AUCCAGCAAUAUUACGUAGA were, in that order, -0.783 ± 0.073 and -0.0552 ± 0.12. The like results for GGACAGCAAUAUUACGAGCU were, in that order, -1.01 ± 0.18 and 0.191 ± 0.19.

Turning to ACGGAGCAAUAUUACGGGCA, the “self-splicing fitness (ln)” value (30 °C) was -2.06 ± 0.42.

As for AACCAGCAAUAUUACGCCGG, the “self-splicing fitness (ln)” value (30 °C) is -3.39 ± 0.17 and the “self-splicing fitness (ln)” value (37 °C) is -2.09 ± 0.17. The like results for GAGCAGCAAUAUUACGACAC were, in that order, -0.81 ± 0.23 and -0.627 ± 0.21. The like results for AACGAGCAAUAUUACGCUAU were, in that order, -3.9 ± 0.24 and -2.18 ± 0.23. The like results for GACGAGCAAUAUUACGUAGG were, in that order, -3.47 ± 0.25 and -2.12 ± 0.22. For GUUCAGCAAUAUUACGUACG, the “self-splicing fitness (ln)” value was -1.32 ± 0.1 (30 °C) and -0.0258 ± 0.11 (37 °C). Consider GUUGAGCAAUAUUACGGUCC, for which the “self-splicing fitness (ln)” value by setting is: (30 °C) -2.05 ± 0.15; (37 °C) -1.3 ± 0.19.

UUUCAGCAAUAUUACGAUGC: the “self-splicing fitness (ln)” value is -3.68 ± 0.28 (30 °C) and -2.01 ± 0.29 (37 °C). With UAGGAGCAAUAUUACGCUGG, the “self-splicing fitness (ln)” value runs as follows: (30 °C) -2.38 ± 0.43; (37 °C) -0.826 ± 0.28. For GGAGAGCAAUAUUACGUGUU, the “self-splicing fitness (ln)” value reads like this: (30 °C) -4.51 ± 0.37; (37 °C) -1.64 ± 0.31. For UAGCAGCAAUAUUACGCGAA, the “self-splicing fitness (ln)” value was -1.54 ± 0.091 (30 °C) and -1.24 ± 0.12 (37 °C). As for UCCUAGCAAUAUUACGGGAU, the “self-splicing fitness (ln)” value was -4.1 ± 0.22 (30 °C) and -2.18 ± 0.17 (37 °C).
